This is an account of results in patent publication US7662583B2, “Bioreactor containing cells expressing glycosyltransferase nucleic acids isolatable from Arabidopsis” (The University of York, priority 2003, dated 2010).

Sequences and labels used below:
B1: UGT76E11: Arabidopsis recombinant glycosyltransferase (protein, UniProt Q9SNB1 1-451, looked up)
UDP-glycosyltransferase 76E11: MEEKPAGRRVVLVAVPAQGHISPIMQLAKTLHLKGFSITIAQTKFNYFSPSDDFTDFQFVTIPESLPESDFEDLGPIEFLHKLNKECQVSFKDCLGQLLLQQGNEIACVVYDEFMYFAEAAAKEFKLPNVIFSTTSATAFVCRSAFDKLYANSILTPLKEPKGQQNELVPEFHPLRCKDFPVSHWASLESMMELYRNTVDKRTASSVIINTASCLESSSLSRLQQQLQIPVYPIGPLHLVASASTSLLEENKSCIEWLNKQKKNSVIFVSLGSLALMEINEVIETALGLDSSKQQFLWVIRPGSVRGSEWIENLPKEFSKIISGRGYIVKWAPQKEVLSHPAVGGFWSHCGWNSTLESIGEGVPMICKPFSSDQMVNARYLECVWKIGIQVEGDLDRGAVERAVRRLMVEEEGEGMRKRAISLKEQLRASVISGGSSHNSLEEFVHYMRTL
B2: UGT71C2: Arabidopsis recombinant glycosyltransferase (protein, UniProt O82382 1-474, looked up)
UDP-glycosyltransferase 71C2: MAKQQEAELIFIPFPIPGHILATIELAKRLISHQPSRIHTITILHWSLPFLPQSDTIAFLKSLIETESRIRLITLPDVQNPPPMELFVKASESYILEYVKKMVPLVRNALSTLLSSRDESDSVHVAGLVLDFFCVPLIDVGNEFNLPSYIFLTCSASFLGMMKYLLERNRETKPELNRSSDEETISVPGFVNSVPVKVLPPGLFTTESYEAWVEMAERFPEAKGILVNSFESLERNAFDYFDRRPDNYPPVYPIGPILCSNDRPNLDLSERDRILKWLDDQPESSVVFLCFGSLKSLAASQIKEIAQALELVGIRFLWSIRTDPKEYASPNEILPDGFMNRVMGLGLVCGWAPQVEILAHKAIGGFVSHCGWNSILESLRFGVPIATWPMYAEQQLNAFTIVKELGLALEMRLDYVSEYGEIVKADEIAGAVRSLMDGEDVPRRKLKEIAEAGKEAVMDGGSSFVAVKRFIDGL
B3: UGT76E2: Arabidopsis recombinant glycosyltransferase, FIG. 8 (protein, listed as Arabidopsis thaliana)
chain: MEEKQVKETRIVLVPVPAQGHVTPMMQLGKALHSKGFSITVVLTQSNRVSSSKDFSDFHFLTIPGSLTESDLQNLGPQKFVLKLNQICEASFKQCIGQLLHEQCNNDIACVVYDEYMYFSHAAVKEFQLPSVVFSTTSATAFVCRSVLSRVNAESFLIDMKDPETQDKVFPGLHPLRYKDLPTSVFGPIESTLKVYSETVNTRTASAVIINSASCLESSSLARLQQQLQVPVYPIGPLHITASAPSSLLEEDRSCVEWLNKQKSNSVIYISLGSLALMDTKDMLEMAWGLSNSNQPFLWVVRPGSIPGSEWTESLPEEFNRLVSERGYIVKWAPQMEVLRHPAVGGFWSHCGWNSTVESIGEGVPMICRPFTGDQKVNARYLERVWRIGVQLEGDLDKETVERAVEWLLVDEEGAEMRKRAIDLKEKIETSVRSGGSSCSSLDDFVNSM
B4: UGT73C6: Arabidopsis recombinant glycosyltransferase (protein, UniProt Q9ZQ95 1-495, looked up)
UDP-glycosyltransferase 73C6: MAFEKNNEPFPLHFVLFPFMAQGHMIPMVDIARLLAQRGVLITIVTTPHNAARFKNVLNRAIESGLPINLVQVKFPYQEAGLQEGQENMDLLTTMEQITSFFKAVNLLKEPVQNLIEEMSPRPSCLISDMCLSYTSEIAKKFKIPKILFHGMGCFCLLCVNVLRKNREILDNLKSDKEYFIVPYFPDRVEFTRPQVPVETYVPAGWKEILEDMVEADKTSYGVIVNSFQELEPAYAKDFKEARSGKAWTIGPVSLCNKVGVDKAERGNKSDIDQDECLEWLDSKEPGSVLYVCLGSICNLPLSQLLELGLGLEESQRPFIWVIRGWEKYKELVEWFSESGFEDRIQDRGLLIKGWSPQMLILSHPSVGGFLTHCGWNSTLEGITAGLPMLTWPLFADQFCNEKLVVQILKVGVSAEVKEVMKWGEEEKIGVLVDKEGVKKAVEELMGESDDAKERRRRAKELGESAHKAVEEGGSSHSNITFLLQDIMQLAQSNN
B5: UGT71E8: Arabidopsis recombinant glycosyltransferase as printed in Table 1A; probably UGT71B8 of FIG. 1 (protein, UniProt Q9LSY4 1-480, looked up)
UDP-glycosyltransferase 71B8: MNKFALVFVPFPILGHLKSTAEMAKLLVEQETRLSISIIILPLLSGDDVSASAYISALSAASNDRLHYEVISDGDQPTVGLHVDNHIPMVKRTVAKLVDDYSRRPDSPRLAGLVVDMFCISVIDVANEVSVPCYLFYTSNVGILALGLHIQMLFDKKEYSVSETDFEDSEVVLDVPSLTCPYPVKCLPYGLATKEWLPMYLNQGRRFREMKGILVNTFAELEPYALESLHSSGDTPRAYPVGPLLHLENHVDGSKDEKGSDILRWLDEQPPKSVVFLCFGSIGGFNEEQAREMAIALERSGHRFLWSLRRASRDIDKELPGEFKNLEEILPEGFFDRTKDKGKVIGWAPQVAVLAKPAIGGFVTHCGWNSILESLWFGVPIAPWPLYAEQKFNAFVMVEELGLAVKIRKYWRGDQLVGTATVIVTAEEIERGIRCLMEQDSDVRNRVKEMSKKCHMALKDGGSSQSALKLFIQDVTKYIA
B6: UGT76E1: Arabidopsis recombinant glycosyltransferase (protein, UniProt Q9LTH3 1-453, looked up)
UDP-glycosyltransferase 76E1: MEELGVKRRIVLVPVPAQGHVTPIMQLGKALYSKGFSITVVLTQYNRVSSSKDFSDFHFLTIPGSLTESDLKNLGPFKFLFKLNQICEASFKQCIGQLLQEQGNDIACVVYDEYMYFSQAAVKEFQLPSVLFSTTSATAFVCRSVLSRVNAESFLLDMKDPKVSDKEFPGLHPLRYKDLPTSAFGPLESILKVYSETVNIRTASAVIINSTSCLESSSLAWLQKQLQVPVYPIGPLHIAASAPSSLLEEDRSCLEWLNKQKIGSVIYISLGSLALMETKDMLEMAWGLRNSNQPFLWVIRPGSIPGSEWTESLPEEFSRLVSERGYIVKWAPQIEVLRHPAVGGFWSHCGWNSTLESIGEGVPMICRPFTGDQKVNARYLERVWRIGVQLEGELDKGTVERAVERLIMDEEGAEMRKRVINLKEKLQASVKSRGSSFSSLDNFVNSLKMMNFM
B7: UGT73B1: Arabidopsis recombinant glycosyltransferase (protein, UniProt Q8VZE9 1-488, looked up)
UDP-glycosyltransferase 73B1: MGTPVEVSKLHFLLFPFMAHGHMIPTLDMAKLFATKGAKSTILTTPLNAKLFFEKPIKSFNQDNPGLEDITIQILNFPCTELGLPDGCENTDFIFSTPDLNVGDLSQKFLLAMKYFEEPLEELLVTMRPDCLVGNMFFPWSTKVAEKFGVPRLVFHGTGYFSLCASHCIRLPKNVATSSEPFVIPDLPGDILITEEQVMETEEESVMGRFMKAIRDSERDSFGVLVNSFYELEQAYSDYFKSFVAKRAWHIGPLSLGNRKFEEKAERGKKASIDEHECLKWLDSKKCDSVIYMAFGTMSSFKNEQLIEIAAGLDMSGHDFVWVVNRKGSQVEKEDWLPEGFEEKTKGKGLIIRGWAPQVLILEHKAIGGFLTHCGWNSLLEGVAAGLPMVTWPVGAEQFYNEKLVTQVLKTGVSVGVKKMMQVVGDFISREKVEGAVREVMVGEERRKRAKELAEMAKNAVKEGGSSDLEVDRLMEELTLVKLQKEKV

One series in a line: UGT enzyme reaction with quercetin (recombinant UGTs, HPLC). Type of series: biochemical, Arabidopsis. The conditions noted are these: quercetin glucosylated at 3-OH; 0.5 mM quercetin, 5 mM UDP-glucose, 30° C. As for the experimental part: The assay mix (200 μl) contained 2 μg of recombinant protein, 100 mM Tris-HCl, pH 7.0, 5 mM UDP-glucose 1.4 mM 2-mercaptoethanol, and 0.5 mM of quercetin. The reaction was carried out at 30° C. for 1 h, and was quick-frozen and stored at −20° C. prior to the reverse-phase HPLC analysis
Reverse-phase HPLC (SpectraSYSTEM HPLC systems and UV6000LP Photodiode Array Detector, ThermoQuest) analysis was carried using a Columbus 5μ C18 column (250×4.60 mm, PHENOMENEX). Quercetin glucosides were separated from the aglycone by a linear gradient of 10-75% acetonitrile in H2O (all solution contained 0.1% trifluoroacetic acid) at 1 ml/mm over 20 mm and monitored at 370 nm. Cytokinin glucosides were separated from their aglycone by a liner gradient of 10-100% methanol in H2O (for N6-isopentenyladenine (iP), N6-benzyladenine and kinetin) or 10-60% methanol in H2O (for trans-zeatin and dihydrozeatin) at 1 ml/min over 20 mm. All solution contained 0.25% acetic acid and 0.04% triethylamine, trifluoroacetic acid. The separation was monitored at 206 nm and 252 nm. The identity of the products was confirmed by comparison with authentic gluco sides.
The activity of Arabidopsis recombinant UGTs towards quercetin was determined using the platform developed previously^15.
B1: the “Specific activity (nkat/mg protein) 3-O-glc” value is 0.08 nkat/mg protein.
Still for that read-out and setting: the figure for B2 is 0.16 nkat/mg protein; for B3 it is 0.17 nkat/mg protein.
In the case of B4, the “Specific activity (nkat/mg protein) 3-O-glc” value turned out to be 0.11 nkat/mg protein.
The same measure, in the same setting: under B5 stands 0.31 nkat/mg protein.
B6: the “Specific activity (nkat/mg protein) 3-O-glc” value amounted to 0.02 nkat/mg protein.
Take B7: the “Specific activity (nkat/mg protein) 3-O-glc” value was found to be 0.32 nkat/mg protein.

The series is the same for the next values; noted with them: quercetin glucosylated at 3′-OH; 0.5 mM quercetin, 5 mM UDP-glucose, 30° C.
On to B1, for which the “Specific activity (nkat/mg protein) 3′-O-glc” value was “— (Activity lower than 0.02 nkat/mg protein has been considered as trace activity and is not shown in the Table.)”.
Take B2: the “Specific activity (nkat/mg protein) 3′-O-glc” value amounted to 0.03 nkat/mg protein.
Turning to B3, the “Specific activity (nkat/mg protein) 3′-O-glc” value was “— (Activity lower than 0.02 nkat/mg protein has been considered as trace activity and is not shown in the Table.)”.
Still for that read-out and setting: the entry for B4 is “— (Activity lower than 0.02 nkat/mg protein has been considered as trace activity and is not shown in the Table.)”; for B5 it is “— (Activity lower than 0.02 nkat/mg protein has been considered as trace activity and is not shown in the Table.)”.
The same measure, in the same setting: under B6 stands “— (Activity lower than 0.02 nkat/mg protein has been considered as trace activity and is not shown in the Table.)”.
B7: the “Specific activity (nkat/mg protein) 3′-O-glc” value was “— (Activity lower than 0.02 nkat/mg protein has been considered as trace activity and is not shown in the Table.)”.

The series is the same for the next values; noted with them: quercetin glucosylated at 4′-OH; 0.5 mM quercetin, 5 mM UDP-glucose, 30° C.
For the molecule B1, the “Specific activity (nkat/mg protein) 4′-O-glc” value is “— (Activity lower than 0.02 nkat/mg protein has been considered as trace activity and is not shown in the Table.)”.
Take B2: the “Specific activity (nkat/mg protein) 4′-O-glc” value is “— (Activity lower than 0.02 nkat/mg protein has been considered as trace activity and is not shown in the Table.)”.
For B3, the “Specific activity (nkat/mg protein) 4′-O-glc” value was “— (Activity lower than 0.02 nkat/mg protein has been considered as trace activity and is not shown in the Table.)”.
Same read-out and setting: under B4 stands 0.16 nkat/mg protein; under B5, 0.25 nkat/mg protein.
Turning to B6, the “Specific activity (nkat/mg protein) 4′-O-glc” value was “— (Activity lower than 0.02 nkat/mg protein has been considered as trace activity and is not shown in the Table.)”.
Still for that read-out and setting: the entry for B7 is “— (Activity lower than 0.02 nkat/mg protein has been considered as trace activity and is not shown in the Table.)”.

Still in this series, the particulars now being: quercetin glucosylated at 7-OH; 0.5 mM quercetin, 5 mM UDP-glucose, 30° C.
Consider B1, for which the “Specific activity (nkat/mg protein) 7-O-glc” value came to 0.12 nkat/mg protein.
On the same count and under the same terms, under B2 stands 0.24 nkat/mg protein; under B3, 0.21 nkat/mg protein; under B4, 0.14 nkat/mg protein.
On the same count and under the same terms, under B5 stands “— (Activity lower than 0.02 nkat/mg protein has been considered as trace activity and is not shown in the Table.)”; under B6, 0.08 nkat/mg protein; under B7, 0.14 nkat/mg protein.
